Experimental data from the DeepSol protein solubility set.

Test: soluble on expression in E. coli; label from the status in PepcDB or PDB records

Sequence	soluble on expression in E. coli
PAMADTIKLRIIETTDIHTNVMDYDYYKDQPSQQIGLSRAATLVKQAKSEVENSVLVDNGDLIQGSPMGDYMAAKGIQTGEVHPVYKAMNQLHYDVGNIGNHEFNYGLDFLQNTLAGANFPYINANVFDKKTGEHYFQPYLIKTHSFKDTDGEVHQVKVGYIGFVPPQIMVWDKKNLEGNVVAKDIKETAEKLIPQMKKEGADIIVAIPHSGVSTDPYKLGAENSVYYLTQVKGIDAIAFGHSHAVFPGKGFENLQGVDNNKGTINGVTAVMPGRWGSHVGVMDLVIEQKDGQWQVVEGQSEARPIFDKAAKKSLAEADQCIIRALEDDHKGTREFVNQ	not soluble
MCLDKMTDIRVRGYKSISFWQEEGIGLIVIRSDSHGRFDLNTLGEITAAIGIAAMDGSVRAVALTGMNNIFGRQLVIGQLSNNTVYNVMQSSSSLISMIYTFEKPIFSILNGDAIDEGYEIALLADRIISADDIKVGFSRDYEFKIGGSFTSLRMTKTDISGPAEGINVDRVVKHESLLEDAKNIIKETADINFPMRRRQRYRYISELINAEKINFYEHYLARS	not soluble
MNQEVRFSRLEPEQRKALLIEATLACLKRHGFQGASVRKICAEAGVSVGLINHHYDGKDALVAEAYLAVTGRVMRLLRGAIDTAPGGARPRLSAFFEASFSAELLDPQLLDAWLAFWGAVGSIEAIGRVHDHSYGEYRALLVGVLRQLAEEGGWADFDAELAAISLSALLDGLWLESGLNPATFTPRQGVQICEAWVDGLEAGAHRRFRRAMEAC	soluble
MNDNEIGNPPIKALIVFRENGDTDNLFVPILCDAIRTTGIDVRCSTNEFWNSDTPYDIIHFQWPEEVMEGNCDDPDRICRLKECIAFFRSRGARFVYTRHNVRPHDANEVIGRAYDIIEEQSDVVVHMGRYSLDEFAAKHADSRNVIIPHPIYQYTYKEDISVERARQYLNLPQEAFIVTSFGKFRNREERRMVTGAFRKWDEAKKFLLAPRLYPFSRFNRYGSNFFKRWTSRAGYYLLIPLLNRLRRMHAGASDEPIDNCDLPYYMAASDVIFIQRKDILNSASIPLAFLFHKVVIGPNIGNIGEILQDTGNPVFHPDNQFDIIRALEAARQLSARRKGEDNYAYAIENMNSGKIGKEYAELYRNLANLSL	not soluble
MLDVHPSGFYAWLQQPHSQRHQADLRLTGQIKQFWLESGCVYGYRKIHLDLRDSGQQCGVNRVWRLMKRVGIKAQVGYRSPRARKGEASIVSPNRLQRQFNPDAPDERWVTDITYIRTHEGWLYLAVVVDLFSRKIIGWSMQSRMTKDIVLNALLMAVWRRNPEKQVLVHSDQGSQYTSHEWQSFLKSHGLEG	not soluble
MTTDFTPWPEALAAQYRQLGYWQDKTLLDYLQQSAERTPNALALVGDNQQWRYQAMLERIEQLAAGFTELGLGCGDNVVLQLGNVAEFYLCFFALLRQGIRPILALPAHRLAEIRYFCQHSQAKAYLIDGAQRPFDYQALAQELLACCPTLQTVIVRGQTRVTDPKFIELASCYSASSCQANADPNQIAFFQLSGGTTGTPKLIPRTHNDYAYSVTASVEICRFDQHTRYLCVLPAAHNFPLSSPGALGVFWAGGCVVLSQDASPQHAFKLIEQHKITVTALVPPLALLWMDHAEKSTYDLSSLHFVQVGGAKFSEAAARRLPKALGCQLQQVFGMAEGLVNYTRLDDSAELIATTQGRPISAHDQLLVVDEQGQPVASGEEGYLLTQGPYTIRGYYRADQHNQRAFNAQGFYITGDKVKLSSEGYVIVTGRAKDQINRGGEKIAAEEVENQLLHHPAVHDAALIAISDEYLGERSCAVIVLKPEQSVNTIQLKRFLHQAGLADYKIPDQIQFIDQLPKTSVGKIDKNALRRRFDTLGLALMS	not soluble
MSLSDVKVIIMDIDGTLTTSKKIISEKTKKALKKAQELGAVLILASGRPTSGLMDFAKELEMDKNHGLLVSFNGARVVDCETNKILFNETMSIDQGQAVLEHMKKFEVKPMIDKGDYMYVNDVFDNEIQYKGEPFNIIQYESRNNKFKLCEKHDLAAFADYPLNKILTAGEPEYLKKHYKEMMEPFKESLNCMFTADFYFEFTAEGIDKAKALDTVLIPMGYKKEEMIAFGDGHNDISMVKYAGIGVAMDNAVQELKNAADEVTLSNEEDGIAYTLSKYMKGLEGHHHHHH	soluble
MGHHHHHHSHMSEETATSDNDNSYARVRAVVMTRDDSSGGWLPLGGSGLSSVTVFKVPHQEENGCADFFIRGERLRDKMVVLECMLKKDLIYNKVTPTFHHWKIDDKKFGLTFQSPADARAFDRGIRRAIEDISQGCPESK	soluble
MELKDGESAGNAENDVEIENPEKSEKAEILQSLDKSLGKSTEESPEAKNLRYFKTKKIRFGPIEYQIVTQNINGPCPLIALINALVLKGKLTIPSSYVVTSTNLLNLLTNVILARAPPENDEKLKETFEANLGDVMNIMETLVNGLDVNVKFSAVDTFEFTPALSLFDLVSVNLYHVWLPDPQFTVLYDLIRNLNYNELVEKMCGDQSTETELLRTFYDESISQITFHGLASLMERMKDGELAVVFHNNHFSTILKRRDEIFKLVSDEGLCDEPNIVWETFSSVDGDCIFVNGDFGNFKPITPPTTHPSPESFEKLQISDNSPIEQGIEAVEHTSAHHSAPVSPQHRAPAPPAPQTARAPPETSPTRNSGAGGKSCLIM	soluble
RQANELPGAPSQEEAVIAFGKFKLNLGTREMFREDEPMPLTSGEFAVLKALVSHPREPLSRDKLMNLARGREYSAMERSIDVQISRLRRMVEEDPAHPRYIQTVWGLGYVFVPDGSKA	soluble
MSLSDNRSHIEEKYQWDLTSIFPNDQTWEKEEKSLAKDLEIAVKRAGHLLDSSQSLLEITELYLALSRRLEKLYVYASMKNDQDTTVSYYQELQAKATALIAKFNQTFAFYEPEFMLLSTEKYQDFLADCPDLLPYQHFFEKLFKQKKHVLSQKEEALLAEASEIFGAAGETFEILDNADIIFPWVKDETGEEVELSHGNFISLMESKNRKVRQEAYKAMYSIYEQYQHTYAKTLQTNVKVNNFQAKIRNYKSAREAALAANFIPETVYDTLVEAVHNHLPLLQRYVKLRQNVLGLDDLKMYDIYVPLSEMDMTFTYEAALDKAEEVLAIFGRDYAERVHRAFRERWIDVRVNKGKRSGAYSGGSYDTNAFILLNWQDTLDNLFTLVHETGHSLHSTFTRENQPYVYGDYSIFLAEIASTTNENILTETLLKEATDEKQRFAILNHYLDGFKGTVFRQTQFAEFEDLIYKADQAGDVLTSDYLNNLYADLNEKYYGLSKENNPEIQYEWARIPHFYYNFYVYQYATGFAAASFLAHKIVHGNQEDKDKYLNYLKAGNSDYPLNVIAKAGLDMTESTYLDQAFKVFEERLIELEELVEKGIDEGHHHHHH	soluble
MAHHHHHHMGGCLISPSAEMQLEENTTSPFGHRRPIFGLFGAGEVTGGVHGGNRLGGNSLLECVVFGRIAGDRAATILQNNDTYLWGEKWSQLKLRNVMEDENGFMWLHFTFPSSFQVSGLEALQGVVLRSVSGDKSVEVYTPYTLPDDEGVVGIALSPWLTGNGVHWLRTLQPGDTVEMKAAERVERNYMNMLKAPHKVVIATSRGIAPMMQILRATMERPEKDATIHLIYIADRASSIPYREKLKALAEASPERFRCTFVLQHPQPGWSGAVNYLDEIAASVFPDPAVVIFLCGASEETRSIKSSLLDMGHDVATIATVE	not soluble
MGSDKIHHHHHHMGYKNILIDFDDTIVDFYDAEEWAFHYMANVFNHKATKDDFLTFKKINHQHWEAFQQNKLTKSEVLSERFVNYFKHHQMEVDGHRADVLFRNGLAEAKVKYFDQTLETIVELSKRHDLYIVTNGVTETQKRRLNQTPLHKYIKKIFISEETGYQKPNPEFFNYVFNDIGEDERQHSIIVGDSLTSDILGGINAGIATCWFNFRGFDHNPGIIPDYEINSWKQLNDIVR	not soluble
MGSDKIHHHHHHMPTRVIEDKGDMTPSFGIDDRIFLGEGLFETIRVNSSKPSFAYMHWERLGNSARQLGIPFEISFDDWFEHLIQKIQKDNLYHGGIKAILSGGPASRGLAERGQVSQLIFQTFNYSIQKHPVRLISINWLRDKANPLYQLKSVNYLEAIIAQRQAIAVGADDALFFNTENHVTETTCANLFLIENNILYTPRVEDGILPGITRARLISHCQQHKMSVQEISLTKKRIEDADAVFLTNSLQGIRRVLSLDNIIFEVNHPIIDKLIFLLNQDES	not soluble
MNNNNKAKTLITQLEQEINWVEELNTLLSEEKEILSTSQFNQLETLAEKKQELSTKLEASAKQRVDLIKESNPGDKPHGLLLSDFLKNCATEDGIQINHLNNTLAERLNLCRELNTINGQVIANNMYTRQQIVNALSGNKSDAVSVYTSNGNLETPSESSHHEEA	soluble
MGSDKIHHHHHHMKFPLLLALLVGGASALHLSSETSDSKSPLMDENLPRDAEISGPEGEECPPGEELMPLEGEKEEGSGSEGVPGDEGAVSGQDVTDVDLQCPKEEDTTSLMGDSGCKTCRYLLVRRAECFDKAQSVCRRCYRGTLASIHSFSVNFGIQSAVRGINQGQVWIGGRIKGWGRCKRFRWVDGSSWNFAYWAAGQPCPGGGRCVTLCTQGGHWRLSHCVKRRPFICSY	not soluble
MAHHHHHHMPEPLEETFSRVLSAKVARAKRVFGGDINETYRLEMEKDDVVYFLKLQRGTTADFYAAESLGLSLLSDVARTPRVVQTGEVNGDAYLIMTWIQSFPSAMRGGVRRNMAELGRMVAIVHRQTSPNGQFGSSVAVPLAGCKTSAGWSKDWATYYIESLLAPQVALARRKGYWSDRREAMFVAFSKRFCAFYASKKNVQPSLLHGDLWGGNVMYGESGEPYLIDPSSYYGHREVDIAMTRLFGGFGSEFYTAYEGEMPLEAGHASRVPWYQLLPLLCHLNLFGEAYGSSVDSAMAHVL	not soluble
FSDFIANHIFMESRCEGIIRITAISLPFMCIHNCLSNYYYSQKESFLPASSQLVEQLVRIGTIILYVRIKNVSTISIADAVTGNIFGEFAAATYCAIPLFFRSIHNKSMMQKLSCSLREYRYIVKYAFPINANQTVLHLLEGAEAILIPAILCMHGLTKDNAISQFGILTGM	not soluble
MSLRKMKRFYIASEEEIKTGKTTDIYFLRTRKILETKNIRKKVLADVTTTSLPENWKWGVLVGVEEVAKLLEGIPVNVYAMPEGTIFHPYEPVLQIEGDYADFGIYETALLGMLSQASGIATAALRIKIAAKFKPVYSFGIRHMHPAIAPMIDRAAFIGGCDGVSGVLGAEMMGEKAVGTMPHALIITVGDQVKAWKYFDEVIEKEVPRIALVDTFYDEKIEAVMAAEALGKKLSAVRLDTPSSRRGNFRRIIEEVKWELKIRGYDWVKILISGGLDEEKIKEIVDVADAFGVGSAIASAKPIDFALDIVEVEGKPIAKRGKLSGRKQVYRCENGHYHVVPADKKLERCPVCNAKVEPLLKPIIENGEIVVEFPKARDIREYVLEQAKKFNLEIEGHHHHHH	not soluble
MEKAADLQDTASLTLKFKFNPKLGIDNPVLSLAEDHDPYDPWSLERPRFCLLSKEEGKSFGFHLQQELGRAGHVVCRVDPGTSAQRQGLQEGDRILAVNNDVVEHEDYAVVVRRIRASSPRVLLTVLARHAHDVARAQLGEDAHLCPTLGPGVRPRLCHIVKDEGGFGFSVTHGNQGPFWLVLSTGGAAERAGVPPGARLLEVNGLWQSGQQVTLLVAGPEVEEQCRQLGLPLAAPLAEGWALPTKPRCLHLEKGPQGFGFLLREEKGLDGRPGQFLWEVDPGLPAKKAGMQAGDRLVAVAGESVEGLGHEETVSRIQGQGSCVSLTVVDPEADRFFSMVRLSPLLFLENTEAPASPQGSSSASLVETEDPSLEDTSVPSVPLGSRQCFLYPGPGGSYGFRLSCVASGPRLFISQVTPGGSAARAGLQVGDVILEVNGYPVGGQNDLERLQQLPEAEPPLCLKLAARSLRGLEAWIPPGAAEDWALASDLL	soluble
